Measured values from patent US20240285788A1, “CONJUGATE OF ANTIBODY AND FUNCTIONAL SUBSTANCE OR SALT THEREOF, AND ANTIBODY DERIVATIVE AND COMPOUND USED IN PRODUCTION OF THE SAME OR SALTS THEREOF” (Ajinomoto Co., Inc., priority 2021, published 2024).

Legend:
[1] = Evaluation of degree of hydrophobicity by hydrophobic column chromatography (HIC-HPLC); assay type: physicochemical; conditions: for Retention time: ADC mimics from thiol group-introduced trastuzumab, DAR 2
Experimental: (§1) According to a previous report (Anal. Chem., 2019, 91, 20, 12724-12732, which is incorporated herein by reference in tis entirety), HIC-HPLC analysis was performed. Measurement was performed using the following conditions. Degrees of hydrophobicity of an ADC can be evaluated by retention time of the ADC in HIC chromatogram.
Measurement system: Chromaster (registered trademark) (manufactured by Hitachi, Ltd.)
Column: Tosoh Biobuthyl NPR 2.5 μm 4.6×35 mm column manufactured by Tosoh Bio-Sciences Inc.
Gradient: linear gradient of eluent A/B
Eluent B: 25 mM Na2HPO4/NaH2PO4 (pH 6.0, 25 v/v % isopropanol added)
For DAR analysis of the ADC mimics synthesized in Example 7 and Comparative Example 2, HIC-HPLC analysis was performed according to a previous report (Anal. Chem., 2019, 91, 20, 12724-12732, which is incorporated herein by reference in its entirety). Measurement was performed using the following conditions.
HIC-HPLC analysis was performed using the condition of Example 8. Measurement was performed using the following conditions. A degree of hydrophobicity of ADC mimic can be evaluated by retention time of ADC in HIC chromatogram.
HIC-HPLC analysis was performed using the condition of Example 8.
Subsequently, hydrophobicity of an ADC was evaluated using HIC-HPLC. Measurement was performed according to Example 9. A degree of hydrophobicity of an ADC can be evaluated by retention time of ADC in HIC chromatogram.
as §1, with “its” for “tis”

[2] = Evaluation of aggregation ratio by size exclusion chromatography (SEC-HPLC); assay type: physicochemical
Experimental: SEC-HPLC analysis was performed according to a previous report (Chemistry Select, 2020, 5, 8435-8439). Measurement was performed using the following conditions.
Measurement system: 1260 HPLC system (manufactured by Agilent)
Column: AdvanceBio SEC 300 Å, 2.7 μm, 4.6 mm×150 mm, manufactured by Agilent Technologies
Eluent: 100 mM sodium dihydrogen phosphate/sodium hydrogen phosphate, aqueous solution of 250 mM sodium chloride (pH 6.8), 10% v/v isopropanol
SEC-HPLC analysis was performed according to Example 10.

Structure (SMILES) | Retention time ([1]; Table 2, HIC-HPLC) [min] | Retention time ([1]; Table 20) [min] | degree of hydrophilicity judged from retention time in HIC chromatogram (in words) [1] | tendency of aggregation ratio by SEC-HPLC (in words) [2]
CCCCCNC(=O)CCSC1CC(=O)N(CCCCCNC(=O)C(OC(=O)N(C)CC(=O)NCc2ccc3ccc4cccc5ccc2c3c45)c2ccc(NC(=O)[C@H](CCCNC(N)=O)NC(=O)[C@@H](NC(=O)OCc3ccccc3)C(C)C)cc2)C1=O (stereo partly drawn) [ADC mimic 5] | 13.6 | 13.6 | – | –
CSC1CC(=O)N(CCCCCNC(=O)C(OC(=O)N(C)CC(=O)NCc2ccc3ccc4cccc5ccc2c3c45)c2ccc(NC(=O)[C@H](CCCNC(N)=O)NC(=O)[C@@H](NC(=O)[C@H](CCC(=O)O)NC(C)=O)C(C)C)cc2)C1=O (stereo partly drawn) [ADC mimic 12] | – | – | more hydrophilic | –
CSC1CC(=O)N(CCCCCNC(=O)C(OC(=O)N(C)CC(=O)NCc2ccc3ccc4cccc5ccc2c3c45)c2ccc(NC(=O)[C@H](CCCNC(N)=O)NC(=O)[C@@H](NC(=O)[C@H](CCC(=O)O)NC(=O)[C@H](CCC(=O)O)NC(C)=O)C(C)C)cc2)C1=O (stereo partly drawn) [ADC mimic 13] | – | – | more hydrophilic | low aggregation ratios
CSC1CC(=O)N(CCCCCNC(=O)C(OC(=O)N(C)CC(=O)NCc2ccc3ccc4cccc5ccc2c3c45)c2ccc(NC(=O)[C@H](C)NC(=O)[C@@H](NC(=O)[C@H](CCC(=O)O)NC(C)=O)C(C)C)cc2)C1=O (stereo partly drawn) [ADC mimic 14] | – | – | more hydrophilic | –
